B1: peptide HD2 (from tick evasin EVA4) / CCL4 (biotinylated, synthetic) (parent complex)
chain 1: EEDDYTAYAPLTCYFT
chain 2: APMGSDPPTACCFSYTARKLPRNFVVDYYETSSLCSQPAVVFQTKRSKQVCADPSESWVQEYVYDLELN

Variants of: B1

Compared with chain 1 EEDDYTAYAPPTCYFT [chain 1 L11P], chain 1 EEDDYTAYAPGTCYFT [chain 1 L11G] is higher in enrichment: -7.67 log2 (difference from the parental peptide) for the first, -4.26 log2 (difference from the parental peptide) for the second.

Compared with chain 1 EEDDYTAYAPFTCYFT [chain 1 L11F], chain 1 EEDDYTAYAPSTCYFT [chain 1 L11S] is higher in enrichment: -0.923 log2 (difference from the parental peptide) for the first, -0.188 log2 (difference from the parental peptide) for the second.

Compared with chain 1 EEDDYTAYAPLTCYFC [chain 1 T16C], chain 1 EEDDYTAYAPLTCYFF [chain 1 T16F] is lower in enrichment: -0.0497 log2 (difference from the parental peptide) for the first, -0.0684 log2 (difference from the parental peptide) for the second.

Compared with chain 1 EEDDYTAYAPLTCYFM [chain 1 T16M], chain 1 EEDDYTAYAPLTCYFA [chain 1 T16A] is higher in enrichment: 0.277 log2 (difference from the parental peptide) for the first, 1.47 log2 (difference from the parental peptide) for the second.

Compared with chain 1 EEDDYTAYAPLTCYFL [chain 1 T16L], chain 1 EEDDYTAYAPLTCYFP [chain 1 T16P] is higher in enrichment: 0.489 log2 (difference from the parental peptide) for the first, 1.45 log2 (difference from the parental peptide) for the second.

Compared with chain 1 EEDDYTAYAPLTCYFR [chain 1 T16R], chain 1 EEDDYTAYAPLTCYFE [chain 1 T16E] is higher in enrichment: -0.298 log2 (difference from the parental peptide) for the first, 0.827 log2 (difference from the parental peptide) for the second.

Going from chain 1 EEDDYTAYAPLTCYFW [chain 1 T16W] to chain 1 EEDDYTAYAPLTCYFH [chain 1 T16H], the enrichment rises from -0.489 log2 (difference from the parental peptide) to 0.117 log2 (difference from the parental peptide).

Going from chain 1 EEDLYTAYAPLTCYFT [chain 1 D4L] to chain 1 EEDYYTAYAPLTCYFT [chain 1 D4Y], the enrichment rises from -3.89 log2 (difference from the parental peptide) to -0.805 log2 (difference from the parental peptide).

Going from chain 1 EEDVYTAYAPLTCYFT [chain 1 D4V] to chain 1 EEDAYTAYAPLTCYFT [chain 1 D4A], the enrichment rises from -4.25 log2 (difference from the parental peptide) to -3.33 log2 (difference from the parental peptide).

First: chain 1 EEDNYTAYAPLTCYFT [chain 1 D4N]
Second: chain 1 EEDKYTAYAPLTCYFT [chain 1 D4K]
The enrichment of the first is higher: -2.63 log2 (difference from the parental peptide) for the first, -5.45 log2 (difference from the parental peptide) for the second.

Compared with chain 1 EEDSYTAYAPLTCYFT [chain 1 D4S], chain 1 EEDPYTAYAPLTCYFT [chain 1 D4P] is higher in enrichment: -3.38 log2 (difference from the parental peptide) for the first, -1.94 log2 (difference from the parental peptide) for the second.

Compared with chain 1 EEDDYTAYAPLTEYFT [chain 1 C13E], chain 1 EEDDYTAYAPLTTYFT [chain 1 C13T] is higher in enrichment: -9.5 log2 (difference from the parental peptide) for the first, -4.09 log2 (difference from the parental peptide) for the second.

Compared with chain 1 EEDDYTAYAPLTLYFT [chain 1 C13L], chain 1 EEDDYTAYAPLTPYFT [chain 1 C13P] is lower in enrichment: -6.3 log2 (difference from the parental peptide) for the first, -9.17 log2 (difference from the parental peptide) for the second.

First: chain 1 EEDDYTAYAPLTMYFT [chain 1 C13M]
Second: chain 1 EEDDYTAYAPLTYYFT [chain 1 C13Y]
The enrichment of the first is higher: -2.33 log2 (difference from the parental peptide) for the first, -5.99 log2 (difference from the parental peptide) for the second.

Compared with chain 1 EEDDYTAYAPLTKYFT [chain 1 C13K], chain 1 EEDDYRAYAPLTCYFT [chain 1 T6R] is higher in enrichment: -8.69 log2 (difference from the parental peptide) for the first, -0.342 log2 (difference from the parental peptide) for the second.

Compared with chain 1 EEDDYNAYAPLTCYFT [chain 1 T6N], chain 1 EEDDYSAYAPLTCYFT [chain 1 T6S] is higher in enrichment: 1.16 log2 (difference from the parental peptide) for the first, 2.87 log2 (difference from the parental peptide) for the second.

Compared with chain 1 EEDDYQAYAPLTCYFT [chain 1 T6Q], chain 1 EEDDYGAYAPLTCYFT [chain 1 T6G] is higher in enrichment: 0.872 log2 (difference from the parental peptide) for the first, 2.91 log2 (difference from the parental peptide) for the second.

Going from chain 1 EEDDYWAYAPLTCYFT [chain 1 T6W] to chain 1 EEDDYTAYAPLTCNFT [chain 1 Y14N], the enrichment falls from 0.361 log2 (difference from the parental peptide) to -3.47 log2 (difference from the parental peptide).

First: chain 1 EEDDYTAYAPLTCGFT [chain 1 Y14G]
Second: chain 1 EEDDYTAYAPLTCPFT [chain 1 Y14P]
The enrichment of the first is higher: -6.07 log2 (difference from the parental peptide) for the first, -6.84 log2 (difference from the parental peptide) for the second.

First: chain 1 EEDDYTAYAPLTCSFT [chain 1 Y14S]
Second: chain 1 EEDDYTAYAPLTCAFT [chain 1 Y14A]
The enrichment of the first is higher: -3.51 log2 (difference from the parental peptide) for the first, -3.96 log2 (difference from the parental peptide) for the second.

First: chain 1 EEDDYTAYAPLTCRFT [chain 1 Y14R]
Second: chain 1 EEDDYTAYAPLTCQFT [chain 1 Y14Q]
The enrichment of the first is lower: -4.11 log2 (difference from the parental peptide) for the first, -2.97 log2 (difference from the parental peptide) for the second.

Going from chain 1 EEDDYTAYAPLTCDFT [chain 1 Y14D] to chain 1 EEDDYTAYAPLTCEFT [chain 1 Y14E], the enrichment falls from -5.1 log2 (difference from the parental peptide) to -5.52 log2 (difference from the parental peptide).

First: chain 1 EEDDYTMYAPLTCYFT [chain 1 A7M]
Second: chain 1 EEDDYTTYAPLTCYFT [chain 1 A7T]
The enrichment of the first is higher: 2.06 log2 (difference from the parental peptide) for the first, -0.191 log2 (difference from the parental peptide) for the second.

Going from chain 1 EEDDYTKYAPLTCYFT [chain 1 A7K] to chain 1 EEDDYTGYAPLTCYFT [chain 1 A7G], the enrichment falls from 1.68 log2 (difference from the parental peptide) to 0.187 log2 (difference from the parental peptide).

First: chain 1 EEDDYTLYAPLTCYFT [chain 1 A7L]
Second: chain 1 EEDDYTVYAPLTCYFT [chain 1 A7V]
The enrichment of the first is higher: -0.0909 log2 (difference from the parental peptide) for the first, -1.76 log2 (difference from the parental peptide) for the second.

First: chain 1 EEDDYTIYAPLTCYFT [chain 1 A7I]
Second: chain 1 EEDDYTPYAPLTCYFT [chain 1 A7P]
The enrichment of the first is lower: -0.497 log2 (difference from the parental peptide) for the first, 1.22 log2 (difference from the parental peptide) for the second.

Compared with chain 1 EEDDYTAYAPLDCYFT [chain 1 T12D], chain 1 EEDDYTAYAPLNCYFT [chain 1 T12N] is higher in enrichment: -0.0833 log2 (difference from the parental peptide) for the first, 1.46 log2 (difference from the parental peptide) for the second.

Compared with chain 1 EEDDYTAYAPLECYFT [chain 1 T12E], chain 1 EEDDYTAYAPLYCYFT [chain 1 T12Y] is higher in enrichment: -1.15 log2 (difference from the parental peptide) for the first, 2.43 log2 (difference from the parental peptide) for the second.
